Test results published in the supplement of paper PMC10724198.
± gives the standard deviation of the averaged measurements.

tested on: Saccharomyces cerevisiae; assay: protein stability index of tFT-peptide fusion (C-terminal peptide) (PSI (0-1 scale)); higher = more stable (slower turnover); conditions: genetic background: wild type; temperature: 30 C
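Note: PSI is a weighted mean of sequencing reads over stability bins, variants kept only with over 10 reads, mCherry proximal and sfGFP distal, peptide attached via GGGS linker.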

Row | Sequence | protein stability index
1 | QTIKKKKKDKKN | 0.764 ± 0.011
2 | QTNIGRKRTLPR | 0.718 ± 0.013
3 | QTQNEENKKQKY | 0.612 ± 0.13
4 | QTVKNYTSQSKR | 0.666 ± 0.018
5 | QTWVQIGIRITL | 0.44 ± 0.087
6 | QVGGVRSRGAAG | 0.664 ± 0.017
7 | QVGSLEIFLCFI | 0.6323 ± 0.0016
8 | QVKVGQTEMAYN | 0.78 ± 0.22
9 | QVLIKKRNIKKK | 0.651 ± 0.076
10 | QVNSAHKRTGSG | 0.668 ± 0.061
11 | QVVIGRLSSQVG | 0.664 ± 0.038
12 | QWFTCLFYFRSP | 0.5697 ± 0.0029
13 | QYGMSSQGGGHN | 0.7312 ± 0.0017
14 | QYKEFYYQNNRR | 0.562 ± 0.062
15 | QYMDQIKGRSGT | 0.723 ± 0.0079
16 | RAADGWGVLCGV | 0.679 ± 0.095
17 | RAAREASQDIPN | 0.753 ± 0.12
18 | RACVCPCHPHRY | 0.737 ± 0.025
19 | RAGFSEPCGSFS | 0.668 ± 0.046
20 | RAGGGAWAGGVA | 0.7085 ± 0.0024
21 | RAGSLTSGVCGP | 0.663 ± 0.015
22 | RAIPRPLPPRRI | 0.7164 ± 0.0029
23 | RAIPTWPIGDRR | 0.655 ± 0.029

Row | Sequence | protein stability index
24 | RALGVPPLSHLP | 0.656 ± 0.036
25 | RALLGSVVCSYG | 0.6268 ± 0.0016
26 | RALPSPPPCPPG | 0.524 ± 0.031
27 | RAPCSLDFRGNA | 0.758 ± 0.12
28 | RAPNSVPSIKKP | 0.68 ± 0.098
29 | RAPPRLHPPFPP | 0.676 ± 0.11
30 | RAPSLLRPRSPP | 0.658 ± 0.12
31 | RAPTRDQCPCPG | 0.68 ± 0.035
32 | RARFSASCRYRV | 0.671 ± 0.048
33 | RARYGPSYTLPL | 0.642 ± 0.027
34 | RASAHLVAIVRY | 0.642 ± 0.02
35 | RASLPKSLPVSY | 0.604 ± 0.07
36 | RASRGLGWRRND | 0.66 ± 0.015
37 | RATRLFPPPHFS | 0.7 ± 0.037
38 | RAVFNMSSPSHI | 0.711 ± 0.077
39 | RCCGGSEVVRAG | 0.705 ± 0.014
40 | RCGGGKWWRGAE | 0.6566 ± 0.0035
41 | RCGSWKGVRGVM | 0.693 ± 0.032
42 | RCLPSASYPACS | 0.691 ± 0.074
43 | RCRLGDFLLSFI | 0.63 ± 0.034
44 | RCVGVTNESTGT | 0.661 ± 0.013
45 | RDGGVHVFATLM | 0.626 ± 0.018
46 | RDGHGRHGRGER | 0.634 ± 0.024

Row | Sequence | protein stability index
47 | RDLGGECARQVG | 0.7 ± 0.04
48 | RDMVSPLPLPLL | 0.613 ± 0.11
49 | RDNKTHSKRAYG | 0.648 ± 0.024
50 | RDRFSWGRRSDN | 0.696 ± 0.041
51 | RDRVSASILVLP | 0.6892 ± 0.0056
52 | REENIKSKCRKI | 0.742 ± 0.021
53 | REGGEIGDQEGT | 0.674 ± 0.069
54 | REKERKRGKAVK | 0.698 ± 0.019
55 | RERASCHSHTNS | 0.675 ± 0.013
56 | RERKEVGRRRIG | 0.604 ± 0.022
57 | RESSAYPPPGEG | 0.6551 ± 0.005
58 | RESTGRDQRGIV | 0.673 ± 0.018
59 | RESVLRVGCFQP | 0.742 ± 0.072
60 | RFCGSGPIVPGQ | 0.707 ± 0.019
61 | RFETKERGIREK | 0.719 ± 0.014
62 | RFGCGRRGQWMR | 0.722 ± 0.06
63 | RFGHLLRFSWLL | 0.6477 ± 0.0057
64 | RFGLIFTSPHPL | 0.63 ± 0.013
65 | RFLEKNKKVIDK | 0.742 ± 0.037
66 | RFLVFLLNFISI | 0.564 ± 0.037
67 | RFMDPFSGITAF | 0.716 ± 0.018
68 | RFVGVGWRVEGG | 0.676 ± 0.019
69 | RGALGGGSNRLA | 0.788 ± 0.26

Row | Sequence | protein stability index
70 | RGARWRAGIGRG | 0.739 ± 0.088
71 | RGCGRLDGRRGG | 0.704 ± 0.015
72 | RGCTVHSLNSSY | 0.6757 ± 0.0022
73 | RGCVKQGLYCVL | 0.679 ± 0.044
74 | RGDIQASKRIHL | 0.752 ± 0.046
75 | RGDVGVGHWVGG | 0.708 ± 0.0093
76 | RGEGLRYVQGSR | 0.668 ± 0.042
77 | RGFWRGGVVRGG | 0.73 ± 0.021
78 | RGGGRGGRPRMC | 0.607 ± 0.085
79 | RGGPTRVSLPPR | 0.654 ± 0.016
80 | RGGRGLAAGAWW | 0.7035 ± 0.0055
81 | RGGVGLEGEGGE | 0.615 ± 0.026
82 | RGGVRGAIHSDL | 0.7039 ± 0.0025
83 | RGHKHSNNVSRR | 0.696 ± 0.019
84 | RGKKGQKEPAEK | 0.688 ± 0.048
85 | RGLSGSHRAGIV | 0.69334 ± 0.00034
86 | RGPPMPGRRGRA | 0.7 ± 0.052
87 | RGPPRRLQCLGR | 0.7121 ± 0.003
88 | RGPRVVYYRLYV | 0.722 ± 0.12
89 | RGRDLSLCQFFY | 0.7364 ± 0.0024
90 | RGRPEVRPPGHY | 0.707 ± 0.03
91 | RGSILTTVNPPR | 0.75 ± 0.13
92 | RGSSWSRVAGDG | 0.631 ± 0.063

Row | Sequence | protein stability index
93 | RGTGRLDRLGLR | 0.662 ± 0.043
94 | RGVCGVGLYTGG | 0.657 ± 0.02
95 | RGVGCDMGGDGG | 0.65 ± 0.042
96 | RGVGLGRWGPVV | 0.652 ± 0.0081
97 | RGVGVRYGVARR | 0.6695 ± 0.006
98 | RGVTEYDSGSSL | 0.647 ± 0.045
99 | RGWVAGGSSAWS | 0.673 ± 0.054
100 | RGWVGGGSSAWS | 0.651 ± 0.024
101 | RGWWVLCGGGWG | 0.567 ± 0.026
102 | RHAVNAQPVARP | 0.647 ± 0.036
103 | RHHRACLNTRLG | 0.671 ± 0.065
104 | RHISRIYVERRY | 0.695 ± 0.02
105 | RHRGVYMDRGCL | 0.663 ± 0.053
106 | RHRPLPETDLAS | 0.708 ± 0.016
107 | RHSSRYLIEFDN | 0.744 ± 0.03
108 | RHYGRSLRLIKT | 0.59 ± 0.011
109 | RHYLWAECGSSE | 0.709 ± 0.017
110 | RIALWPTSMPAL | 0.684 ± 0.041
111 | RIAWTKEKMGKT | 0.661 ± 0.024
112 | RIDHYIFYVNAV | 0.675 ± 0.017
113 | RIFSPVFLSMSV | 0.649 ± 0.018
114 | RIGKKKRYNEKS | 0.751 ± 0.062
115 | RIINRATIIIKL | 0.564 ± 0.0065

Row | Sequence | protein stability index
116 | RIKEYITDEKNR | 0.674 ± 0.056
117 | RINIDLKKIAKK | 0.689 ± 0.05
118 | RIRGPECDLWFR | 0.707 ± 0.019
119 | RIRTLASRRLEG | 0.709 ± 0.1
120 | RISIHGECHFHK | 0.654 ± 0.014
121 | RIVVDIYANRRG | 0.689 ± 0.02
122 | RKDDRPYIRETS | 0.701 ± 0.016
123 | RKDKKKKGSKEE | 0.69 ± 0.046
124 | RKEQEDVHNKKK | 0.671 ± 0.051
125 | RKEVKAWKTTDI | 0.694 ± 0.013
126 | RKKKKKKENKRR | 0.754 ± 0.054
127 | RKKKKKKKKKSN | 0.631 ± 0.089
128 | RKKQKKQKKKKG | 0.682 ± 0.0092
129 | RKKRFENKKEKY | 0.731 ± 0.057
130 | RKNHKKNHKTRI | 0.65 ± 0.087
131 | RKNKQVDLCHRE | 0.676 ± 0.037
132 | RKSRKPNSEPKR | 0.717 ± 0.0072
133 | RKSTVILLLTDT | 0.668 ± 0.054
134 | RKTKKEEKTKRN | 0.719 ± 0.2
135 | RKVTQSKQGKKR | 0.722 ± 0.0093
136 | RKYKKKKGSKEE | 0.708 ± 0.063
137 | RLCPNSITLPSL | 0.7156 ± 0.0018
138 | RLDVVGVPERTL | 0.762 ± 0.047

Row | Sequence | protein stability index
139 | RLEKGEDREGKK | 0.641 ± 0.085
140 | RLEMPSVRSCAV | 0.638 ± 0.17
141 | RLFGFGEQKIEE | 0.695 ± 0.021
142 | RLGERGAKPQGR | 0.635 ± 0.0074
143 | RLGGTMVVGTGG | 0.661 ± 0.041
144 | RLGHAIVLLLPC | 0.57 ± 0.027
145 | RLGKRKKPYTQG | 0.756 ± 0.077
146 | RLGLQWGEFGTL | 0.72 ± 0.033
147 | RLHHQYSEATIS | 0.703 ± 0.027
148 | RLHSLFVSCPTC | 0.703 ± 0.023
149 | RLIPYPPPLSLP | 0.724 ± 0.021
150 | RLLGLWGEVMGF | 0.731 ± 0.021
151 | RLLGSGHCLLYI | 0.613 ± 0.047
152 | RLPAFSSDLLRH | 0.704 ± 0.046
153 | RLPLRVTGIPVD | 0.6668 ± 0.0016
154 | RLPPPLPQAPPT | 0.712 ± 0.023
155 | RLPQIHSDREQK | 0.746 ± 0.018
156 | RLPSPPTAPAPP | 0.658 ± 0.0084
157 | RLRASFFFSPAL | 0.733 ± 0.056
158 | RLRFIGDCKSST | 0.637 ± 0.031
159 | RLRGLLSPVGPQ | 0.716 ± 0.047
160 | RLRVIMVSVGGV | 0.544 ± 0.0079
